Values quoted from earlier work as cited in publication PMC9008539.

Molecular target: PfRh5 (Plasmodium falciparum) (UniProt Q8IFM5)
Sequence (Q8IFM5 25-526): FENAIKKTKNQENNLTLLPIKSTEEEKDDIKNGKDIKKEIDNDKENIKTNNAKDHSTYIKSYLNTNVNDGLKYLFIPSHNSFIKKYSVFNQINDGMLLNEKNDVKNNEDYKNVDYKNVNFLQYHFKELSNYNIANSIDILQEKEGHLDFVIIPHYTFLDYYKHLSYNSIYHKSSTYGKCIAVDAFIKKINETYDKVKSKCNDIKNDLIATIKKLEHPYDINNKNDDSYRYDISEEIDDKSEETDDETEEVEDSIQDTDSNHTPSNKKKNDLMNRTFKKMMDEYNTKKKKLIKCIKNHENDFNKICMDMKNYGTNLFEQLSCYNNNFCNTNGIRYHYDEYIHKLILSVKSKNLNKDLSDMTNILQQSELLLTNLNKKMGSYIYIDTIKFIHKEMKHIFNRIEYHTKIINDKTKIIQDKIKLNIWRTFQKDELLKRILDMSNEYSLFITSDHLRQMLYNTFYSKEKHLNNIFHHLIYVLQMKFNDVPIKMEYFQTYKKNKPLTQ

PfRipr (from UniProt O97302)
Kd: 0.48 nM
